Values of other authors, collected in paper PMC12193198.

Biological target: transferrin receptor (TfR) (Homo sapiens) (UniProt P02786)
Sequence (P02786 89-760): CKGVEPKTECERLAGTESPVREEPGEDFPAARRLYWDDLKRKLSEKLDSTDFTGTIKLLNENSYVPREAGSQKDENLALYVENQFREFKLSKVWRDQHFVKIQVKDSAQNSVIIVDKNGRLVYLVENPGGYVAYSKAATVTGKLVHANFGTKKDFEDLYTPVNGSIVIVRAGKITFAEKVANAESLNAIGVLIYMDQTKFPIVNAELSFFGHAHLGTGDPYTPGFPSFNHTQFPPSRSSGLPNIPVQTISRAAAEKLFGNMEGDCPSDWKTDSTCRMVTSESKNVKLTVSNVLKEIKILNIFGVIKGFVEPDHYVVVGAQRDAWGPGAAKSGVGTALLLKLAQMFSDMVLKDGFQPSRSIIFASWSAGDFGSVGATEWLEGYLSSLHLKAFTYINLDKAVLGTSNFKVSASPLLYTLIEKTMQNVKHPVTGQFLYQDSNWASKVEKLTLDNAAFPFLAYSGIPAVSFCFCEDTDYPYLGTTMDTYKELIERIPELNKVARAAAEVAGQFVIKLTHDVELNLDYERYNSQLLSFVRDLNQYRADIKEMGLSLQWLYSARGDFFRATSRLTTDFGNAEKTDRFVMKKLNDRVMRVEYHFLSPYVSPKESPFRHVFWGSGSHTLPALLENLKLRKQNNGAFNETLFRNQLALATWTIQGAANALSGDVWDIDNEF

Kd: 10 nM
Substance: T7 peptide
